Assay [1] addresses human CD16A (FcγRIIIA) on primary human NK cells (human) (UniProt P08637). Put plainly: flow cytometry on primary human NK cells, 37 C, buffer.
Assay [2] addresses Human CD16A-158V ECD-monomeric Fc fusion antigen (human) (UniProt P08637). Put plainly: SPR (Biacore T200), receptor-mono-Fc captured, 1:1 model. In general terms: SPR reads the build-up and loss of mass on a sensor chip optically.
Assay [3] addresses Cynomolgus CD16A ECD-monomeric Fc fusion antigen (cynomolgus) (UniProt Q8SPW2). In words: ELISA, antigen coated at 1.5 µg/mL (32 nM), scFv titrated. In general terms: In an ELISA, binding on a coated surface is turned into a signal by an enzyme label.
In assay [4] the target is Human CD16A-158F ECD-monomeric Fc fusion antigen (human) (UniProt P08637). The assay is described as above.
Sequence of Human CD16A-158F ECD-monomeric Fc fusion antigen (human) (P08637 17-208): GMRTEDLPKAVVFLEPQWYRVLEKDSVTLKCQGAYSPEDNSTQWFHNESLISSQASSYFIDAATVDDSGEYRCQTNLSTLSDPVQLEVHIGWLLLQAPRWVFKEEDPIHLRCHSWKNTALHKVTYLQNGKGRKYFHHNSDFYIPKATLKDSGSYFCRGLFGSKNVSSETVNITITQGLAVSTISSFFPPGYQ
The target in assay [5] is Human CD16A-158V ECD-monomeric Fc fusion antigen (human) (UniProt P08637). The description is as above.
Sequence of Human CD16A-158V ECD-monomeric Fc fusion antigen (human) (P08637 17-208 F176V): as the sequence (P08637 17-208) above, with F160V counted along it
Assay [6] has the same target. In words: ELISA, CD16 antigen coated at 0.5 µg/mL (10 nM), without competition.
Assay [7] shares this target. In words: ELISA, CD16 antigen coated at 0.5 µg/mL (10 nM), competitor 8-10 nM 3G8 IgG.
The target of assay [8] is human CD16A (FcγRIIIA) on primary human NK cells (human) (UniProt P08637). In words: flow cytometry on primary human NK cells, 37 C, with 10 mg/mL polyclonal human IgG. Background: Flow cytometry measures light scatter and fluorescence of single cells or particles in a stream.
Sequence of human CD16A (FcγRIIIA) on primary human NK cells (human) (P08637 17-254): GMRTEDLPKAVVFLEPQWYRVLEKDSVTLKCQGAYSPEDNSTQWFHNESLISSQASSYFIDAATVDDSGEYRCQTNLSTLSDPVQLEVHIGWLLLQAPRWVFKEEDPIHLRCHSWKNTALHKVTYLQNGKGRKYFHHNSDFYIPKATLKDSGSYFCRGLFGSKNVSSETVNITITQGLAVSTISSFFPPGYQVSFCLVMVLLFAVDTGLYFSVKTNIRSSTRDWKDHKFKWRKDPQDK
For assay [9], the target named is human CD16A-158V and cynomolgus CD16 (value not tied to one of the two). In words: SPR, 50 nM analyte, receptor captured, 3 h dissociation.
Assay [10] deals with T1, B-cell maturation antigen (BCMA) (human, UniProt Q02223 1-54, limits assumed).
T1 construct: also called CD269; TNFRSF17
T1 sequence (looked up): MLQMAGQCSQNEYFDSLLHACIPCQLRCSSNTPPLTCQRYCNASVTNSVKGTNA
Put plainly: flow cytometry on Raji cells (low BCMA), APC-A histogram, % of Max.

Assay [11] concerns the target human CD16A (SEQ ID NO:48) (human, UniProt P08637 17-208). Put plainly: SPR (Biacore T200), purified scFv, monovalent binding affinity; human CD16A.
Assay [12] deals with cynomolgus CD16A (SEQ ID NO:49) (cynomolgus, UniProt Q8SPW2 17-208). In words: SPR (Biacore T200), purified scFv, monovalent binding affinity; cynomolgus CD16A.
Sequence of cynomolgus CD16A (SEQ ID NO:49) (Q8SPW2 17-208 limits assumed): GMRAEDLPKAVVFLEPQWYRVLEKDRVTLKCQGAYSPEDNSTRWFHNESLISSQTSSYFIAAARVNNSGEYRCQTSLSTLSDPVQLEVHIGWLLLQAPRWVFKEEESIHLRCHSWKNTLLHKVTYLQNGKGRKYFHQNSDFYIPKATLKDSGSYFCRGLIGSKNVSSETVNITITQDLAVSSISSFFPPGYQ
For assay [13], the target named is T1, B-cell maturation antigen (BCMA). Put plainly: not stated; binding to BCMA.
Assay [14] concerns the target T2, CD16A (human, UniProt P08637 17-208).
T2 construct: also called CD16A antigen; FcγRIIIA
Put plainly: not stated; binding to CD16A.

Assay [15] has as its target T3, human CD16A (FcγRIIIA) on primary human NK cells (human, UniProt P08637 17-254).
T3 construct: whole, on cells
Put plainly: flow cytometry on freshly prepared human NK cells, DyLight650-labelled antibody, in the presence of 10 mg/mL SCIG (Hizentra), delta gMFI.
Description: Fresh prepared human NK cells were pre-incubated for 1-hours at 37 C with and without 10 mg/mL of SCIG (Hizentra), then stained with DyLight650 labeled anti-AFM26/CD16a at indicted concentrations. […] In FIGS. 40C and 40D, human NK cells were isolated from a healthy human blood donor. NK (FIG. 40D) and MM.1S cells (FIG. 40C) were preincubated separately in 50% human autologous serum for 2 hours prior to assay setup. NK cells were co-cultured with MM.15 tumor cell line at an approximate E:T ration of 5, and exposed to 10-fold serial diluted test articles from 0.1-100nM for approximately 20 hours at 37 C with 5% CO₂. Antibody staining with CD138 and CD56 followed by FACS were used to monitor cytotoxicity of MM.15 target cells and NK survival. Data were analyzed with the software programs FlowJo and GraphPad Prism 6.

Assay [16] has as its target T4, Human CD16A-158F ECD-monomeric Fc fusion antigen (human, UniProt P08637 17-208, biotinylated in SPR).
T4 construct: extracellular domain; not shown: monomeric Fc (Ying et al. 2012) fusion partner, Avi tag in SPR
In words: SPR (Biacore T200), receptor-mono-Fc captured, 1:1 model. The method, then:
IgGs and scFvs were prepared in HBS-P+buffer at indicated concentration series and are injected to reference surfaces (Fc 1, Fc 3) and receptor captured surface (Fc 2, Fc 4) at a flow rate of 40 μL/min (association time 180 s, dissociation time 300 s). […] Data were referenced by subtraction of signals from reference surfaces (Fc 2-1, Fc 4-3) and zero concentration (buffer control) signals. Kinetic evaluation was performed by fitting data to a 1:1 binding model (Rmax and RI locally fitted) using Biacore T200 Evaluation Software (v3.1). […] Referenced curves were normalized to each curves maximum and overlaid. For investigation of receptor retention via qualitative dissociation phase comparison of monovalent and bivalent CD16A-binding antibodies or ligands, biotinylated mono-Fc(silent)-Avi-tagged receptors were prepared in HBS-P+and captured (human CD16A-158V approx. 160RU, cynomolgus CD16 approx. 320 RU) in flow cells Fc 2 and […].

For assay [17], the target named is T5, Human CD16A-158V ECD-monomeric Fc fusion antigen (human, UniProt P08637 17-208).
T5 construct: extracellular domain; also called CD16A-158V ECD-Fc fusion antigen; biotinylated mono-Fc(silent)-Avi-tagged receptor; not shown: monomeric Fc (Ying et al. 2012) fusion partner, Avi tag in SPR
T5 sequence (P08637 17-208 F176V): as the sequence (P08637 17-208) above, with F160V counted along it
Put plainly: SPR multi-cycle kinetics (Biacore T200), 4-fold dilution series over captured human CD16A-158V. The method, then:
IgGs and scFvs were prepared in HBS-P+buffer at indicated concentration series and are injected to reference surfaces (Fc 1, Fc 3) and receptor captured surface (Fc 2, Fc 4) at a flow rate of 40 μL/min (association time 180 s, dissociation time 300 s). […] Data were referenced by subtraction of signals from reference surfaces (Fc 2-1, Fc 4-3) and zero concentration (buffer control) signals. Kinetic evaluation was performed by fitting data to a 1:1 binding model (Rmax and RI locally fitted) using Biacore T200 Evaluation Software (v3.1).

The Kd is the concentration at which binding is half-saturated. Read a high Kd as lower affinity. As a reminder, the EC50 is the concentration needed to bring the measured effect to its halfway point. A higher EC50 goes with lower potency in that assay. By EC50 (read off the curve) is commonly meant the concentration giving half of the maximal effect. What is called koff is the rate constant with which the complex falls apart. Broadly, the kon is the rate constant with which the complex forms.

T4 sequence (P08637 17-208): as the sequence (P08637 17-208) above
Sequence of human CD16A (SEQ ID NO:48) (P08637 17-208 limits assumed): as the sequence (P08637 17-208) above
T2 sequence (P08637 17-208 limits assumed): as the sequence (P08637 17-208) above
T3 sequence (P08637 17-254): as the sequence (P08637 17-254) above
Sequence of Cynomolgus CD16A ECD-monomeric Fc fusion antigen (cynomolgus) (Q8SPW2 17-208): as the sequence (Q8SPW2 17-208 limits assumed) above

For the molecule scFv 3G8, the Kd in assay [1] was 0.0038 µM; in assay [2] it was 0.0086 µM; in assay [8], 0.0646 µM. The EC50 in [3] was 0.00087 µM; in [4], 0.00058 µM; in assay [5], 0.00033 µM; in assay [6], 0.0009 µM; in assay [7] it was 0.0197 µM.
In turn, “IgG1 Fc (enhanced, S239D/I332E) (from UniProt P01857 1-330) (antibody)” displayed a percent remaining on the receptor after 3 h of dissociation in assay [9] of 10%.

B1: CD16A/BCMA antibody III (bispecific antibody)
chain 1: DKTHTCPPCPAPEFEGGPSVFLFPPKPKDTLMISRTPEVTCVVVAVSHEDPEVKFNWYVDGVEVHNAKTKPREEQYNSTYRVVSVLTVLHQDWLNGKEYKCKVSNKALPAPIEKTISKAKGQPREPQVYTLPPSREEMTKNQVSLTCLVKGFYPSDIAVEWESNGQPENNYKTTPPVLDSDGSFFLTSKLTVDKSRWQQGNVFSCSVMHEALHNHYTQKSLSLSPGGGGGSGGGGSSYVLTQPSSVSVAPGQTATISCGGHNIGSKNVHWYQQRPGQSPVLVIYQDNKRPSGIPERFSGSNSGNTATLTISGTQAMDEADYYCQVWDNYSVLFGGGTKLTVLGGSGGSQVQLVQSGAEVKKPGESLKVSCKASGYTFTSYYMHWVRQAPGQGLEWMGAIEPMYGSTSYAQKFQGRVTMTRDTSTSTVYMELSSLRSEDTAVYYCARGSAYYYDFADYWGQGTLVTVSSGGSGGSGGSGGSGGSGGSSYVLTQPSSVSVAPGQTATISCGGHNIGSKNVHWYQQRPGQSPVLVIYQDNKRPSGIPERFSGSNSGNTATLTISGTQAMDEADYYCQVWDNYSVLFGGGTKLTVLGGSGGSQVQLVQSGAEVKKPGESLKVSCKASGYTFTSYYMHWVRQAPGQGLEWMGAIEPMYGSTSYAQKFQGRVTMTRDTSTSTVYMELSSLRSEDTAVYYCARGSAYYYDFADYWGQGTLVTVSSAAAGSHHHHHH
chain 2: EVQLLESGGGLVQPGGSLRLSCAASGFTFSNYDMAWVRQAPGKGLEWVSSISTRGDITSYRDSVKGRFTISRDNSKNTLYLQMNSLRAEDTAVYYCARQDYYTDYMGFAYWGQGTLVTVSSGGGGSGGGGSGGGGSAIQMTQSPSSLSASVGDRVTITCRASEDIYNGLAWYQQKPGKAPKLLIYGASSLQDGVPSRFSGSGSGTEFTLTISSLQPEDEATYYCAGPHKYPLTFGGGTKVEIKDKTHTCPPCPAPEFEGGPSVFLFPPKPKDTLMISRTPEVTCVVVAVSHEDPEVKFNWYVDGVEVHNAKTKPREEQYNSTYRVVSVLTVLHQDWLNGKEYKCKVSNKALPAPIEKTISKAKGQPREPQVYTLPPSREEMTKNQVSLYCLVKGFYPSDIAVEWESNGQPENNYKTTPPVLDSDGSFFLYSKLTVDKSRWQQGNVFSCSVMHEALHNHYTQKSLSLSPG
notes: also called KiH-scDb-Fc BCMA/CD16a
B1: in assay [10], the binding result is “binds”.

B2: anti-CD16A Fv of SEQ ID NOs:1 and 2 (scFv)
chain 1: QVQLVQSGAEVKKPGESLKVSCKASGYTFTSYYMHWVRQAPGQGLEWMGIINPSGGSTSYAQKFQGRVTMTRDTSTSTVYMELSSLRSEDTAVYYCARGSAYYYDFADYWGQGTLVTVSS
chain 2: SYVLTQPSSVSVAPGQTATISCGGHNIGSKNVHWYQQRPGQSPVLVIYQDNKRPSGIPERFSGSNSGNTATLTISGTQAMDEADYYCQVWDNYSVLFGGGTKLTVL
notes: Measured as purified scFv
Turning to B2, the Kd in assay [11] was 0.0405 µM; in assay [12], 0.132 µM.

B3: CD16A/BCMA antibody I (bispecific antibody, human IgG1, kappa)
heavy: EVQLLESGGGLVQPGGSLRLSCAASGFTFSNYDMAWVRQAPGKGLEWVSSISTRGDITSYRDSVKGRFTISRDNSKNTLYLQMNSLRAEDTAVYYCARQDYYTDYMGFAYWGQGTLVTVSSASTKGPSVFPLAPSSKSTSGGTAALGCLVKDYFPEPVTVSWNSGALTSGVHTFPAVLQSSGLYSLSSVVTVPSSSLGTQTYICNVNHKPSNTKVDKKVEPKSCDKTHTCPPCPAPEFEGGPSVFLFPPKPKDTLMISRTPEVTCVVVAVSHEDPEVKFNWYVDGVEVHNAKTKPREEQYNSTYRVVSVLTVLHQDWLNGKEYKCKVSNKALPAPIEKTISKAKGQPREPQVYTLPPSREEMTKNQVSLTCLVKGFYPSDIAVEWESNGQPENNYKTTPPVLDSDGSFFLYSKLTVDKSRWQQGNVFSCSVMHEALHNHYTQKSLSLSPGGGGGSGGGGSGGGGSGGGGSGGGGSGGGGSSYVLTQPSSVSVAPGQTATISCGGHNIGSKNVHWYQQRPGQSPVLVIYQDNKRPSGIPERFSGSNSGNTATLTISGTQAMDEADYYCQVWDNYSVLFGGGTKLTVLGGSGGSGGSGGSGGSGGSGGSQVQLVQSGAEVKKPGESLKVSCKASGYTFTSYYMHWVRQAPGQGLEWMGAIEPMYGSTSYAQKFQGRVTMTRDTSTSTVYMELSSLRSEDTAVYYCARGSAYYYDFADYWGQGTLVTVSS
light: AIQMTQSPSSLSASVGDRVTITCRASEDIYNGLAWYQQKPGKAPKLLIYGASSLQDGVPSRFSGSGSGTEFTLTISSLQPEDEATYYCAGPHKYPLTFGGGTKVEIKRTVAAPSVFIFPPSDEQLKSGTASVVCLLNNFYPREAKVQWKVDNALQSGNSQESVTEQDSKDSTYSLSSTLTLSKADYEKHKVYACEVTHQGLSSPVTKSFNRGEC
notes: also called scFv-IgAb I BCMA/CD16a; BCMA/CD16A antibody I
For B3, the values for the Kd in [13] and in assay [14] were around 0.002 µM and around 0.016 µM, respectively. In addition, in [15], the “EC50 (read off the curve)” value was around 0.04 µM.

B4: IgG1 Fc (silenced, L234F/L235E/D265A) (antibody)
heavy: ASTKGPSVFPLAPSSKSTSGGTAALGCLVKDYFPEPVTVSWNSGALTSGVHTFPAVLQSSGLYSLSSVVTVPSSSLGTQTYICNVNHKPSNTKVDKKVEPKSCDKTHTCPPCPAPEFEGGPSVFLFPPKPKDTLMISRTPEVTCVVVAVSHEDPEVKFNWYVDGVEVHNAKTKPREEQYNSTYRVVSVLTVLHQDWLNGKEYKCKVSNKALPAPIEKTISKAKGQPREPQVYTLPPSRDELTKNQVSLTCLVKGFYPSDIAVEWESNGQPENNYKTTPPVLDSDGSFFLYSKLTVDKSRWQQGNVFSCSVMHEALHNHYTQKSLSLSPGK
notes: also called human IgG1 Fc-silenced
In [16], B4 came in with a Kd of 34.7 µM, a koff of 0.71 s⁻¹ and a kon of 20400 M⁻¹ s⁻¹. Besides, the binding result in assay [17] is reported as “no binding”.

B5: CD16A/BCMA antibody II (bispecific antibody)
TandAb polypeptide VH BCMA-VL CD16A-VH CD16A-VL BCMA: EVQLLESGGGLVQPGGSLRLSCAASGFTFSNYDMAWVRQAPGKGLEWVSSISTRGDITSYRDSVKGRFTISRDNSKNTLYLQMNSLRAEDTAVYYCARQDYYTDYMGFAYWGQGTLVTVSSGGSGGSGGSGGSSYVLTQPSSVSVAPGQTATISCGGHNIGSKNVHWYQQRPGQSPVLVIYQDNKRPSGIPERFSGSNSGNTATLTISGTQAMDEADYYCQVWDNYSVLFGGGTKLTVLGGSQVQLVQSGAEVKKPGESLKVSCKASGYTFTSYYMHWVRQAPGQGLEWMGAIEPMYGSTSYAQKFQGRVTMTRDTSTSTVYMELSSLRSEDTAVYYCARGSAYYYDFADYWGQGTLVTVSSGGSGGSGGSGGSAIQMTQSPSSLSASVGDRVTITCRASEDIYNGLAWYQQKPGKAPKLLIYGASSLQDGVPSRFSGSGSGTEFTLTISSLQPEDEATYYCAGPHKYPLTFGGGTKVEIK
notes: also called Fc-less TandAb BCMA/CD16A
Regarding B5, the binding result in [10] is recorded as “binds”.

Values taken from patent US20210253698A1 (AFFIMED, published 2021).
